T1: Human neuropilin-2 (NP-2) (human, UniProt O60462 21-931)
T1 sequence: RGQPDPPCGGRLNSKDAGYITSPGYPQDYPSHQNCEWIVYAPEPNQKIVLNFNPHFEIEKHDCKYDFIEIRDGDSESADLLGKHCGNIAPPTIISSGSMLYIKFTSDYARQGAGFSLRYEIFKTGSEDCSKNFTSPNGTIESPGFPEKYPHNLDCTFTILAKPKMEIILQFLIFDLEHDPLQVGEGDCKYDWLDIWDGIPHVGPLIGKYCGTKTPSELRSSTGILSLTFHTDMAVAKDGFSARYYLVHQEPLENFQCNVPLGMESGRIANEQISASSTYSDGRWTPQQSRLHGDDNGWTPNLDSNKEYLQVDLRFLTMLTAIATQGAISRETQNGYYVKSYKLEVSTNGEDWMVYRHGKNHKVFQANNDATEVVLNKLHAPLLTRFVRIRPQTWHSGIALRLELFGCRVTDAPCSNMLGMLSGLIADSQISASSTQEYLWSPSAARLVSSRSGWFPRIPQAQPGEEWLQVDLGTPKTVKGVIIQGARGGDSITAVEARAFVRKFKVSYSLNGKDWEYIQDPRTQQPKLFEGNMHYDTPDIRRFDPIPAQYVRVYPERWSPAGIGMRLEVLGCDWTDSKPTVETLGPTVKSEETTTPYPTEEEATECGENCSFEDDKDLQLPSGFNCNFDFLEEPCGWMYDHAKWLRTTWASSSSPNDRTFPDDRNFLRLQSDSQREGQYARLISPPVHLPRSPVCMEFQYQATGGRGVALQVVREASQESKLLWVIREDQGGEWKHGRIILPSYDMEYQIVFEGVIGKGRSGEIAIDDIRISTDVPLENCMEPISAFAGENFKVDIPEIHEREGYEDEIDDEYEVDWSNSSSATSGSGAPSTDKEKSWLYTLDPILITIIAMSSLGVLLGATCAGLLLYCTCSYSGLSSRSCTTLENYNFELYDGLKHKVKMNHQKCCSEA


Experiments:
[1] = biological target: T2, Human VEGF165R/NP-1 (neuropilin-1) (human, UniProt O14786 22-923); assay: cell-based or functional assay
[2] = biological target: T3, Neuropilin-1 on Dunning rat prostate carcinoma AT3.1 cells (rat, UniProt Q9QWJ9 22-922); assay: ^125I-VEGF165 cross-linking to Dunning rat prostate carcinoma cells
T3 construct: whole, on cells; also called VEGF165R/NP-1 (AT3.1 cells)

[3] = biological target: T1, Human neuropilin-2 (NP-2); assay: expression cloning: one of the seven single clones positive for ^125I-VEGF165 binding to transfected COS-7 cells
Protocol: The E. coli were sub-divided into 50 separate pools and plated onto 50 LB ampicillin dishes, with each pool representing approximately 100 clones. DNA made from these pools was transfected into COS-7 cells which were screened for ¹²⁵I-VEGF₁₆₅ binding as described above. […] Each pool was plated onto separate LB ampicillin dishes and DNA was prepared from 96 individual colonies and screened in a 96-well two dimensional grid for ¹²⁵I-VEGF₁₆₅ binding to tranfected COS-7 cells as described above. […] The seven positive plasmid clones were amplified and their DNA was analyzed by restriction enzyme digestion. […] One clone from each group was submitted for automated DNA sequencing.
E. coli transformed with the plasmid library were divided into pools.

[4] = biological target: T2, Human VEGF165R/NP-1 (neuropilin-1); assay: Scatchard analysis (LIGAND program) of ^125I-VEGF165 binding to PAE/NP-1 cells
Protocol: Scatchard Analysis of VEGF₁₆₅ Binding to VEGF₁₆₅R/NP-1.7A. Increasing amounts of ¹²⁵I-VEGF₁₆₅ (0.1-50 ng/ml) were added to subconfluent cultures of PAE cells transfected with human VEGF₁₆₅R/NP-1 cDNA (PAE/NP-1 cells) in 48 well dishes. Non-specific binding was determined by competition with a 200-fold excess of unlabeled VEGF₁₆₅. After binding, the cells were washed, lysed and the cell-associated radioactivity was determined using a y counter.
The specific activity ranged from 40,000-100,000 cpm/ng protein. […] VEGF binding was quantitated by measuring the cell-associated radioactivity in a y-counter (Beckman, Gamma 5500). The counts represent the average of three wells. All experiments were repeated at least three times and similar results were obtained.

[5] = biological target: T2, Human VEGF165R/NP-1 (neuropilin-1); assay: ^125I-VEGF121 binding and chemical cross-linking to PAE/NP-1 cells, SDS-PAGE, autoradiography
Protocol: FIG. 8. […] The binding was carried out in the presence of 1 μg/ml heparin. […] The cells were lysed and proteins were resolved by 6% SDS-PAGE. The polyacrylamide gel was dried and exposed to X-ray film.

231 breast carcinoma cell motility (Boyden chamber motility assay) [1]	binding result [2]	binding result [3]	Kd [4]	binding result [5]	Binder
2 fold	binds	binds	~0.32 nM	–	Human recombinant VEGF165 (ligand, UniProt P15692-4 27-191, looked up, radio-iodinated (^125I, IODO-BEADS) in the binding and cross-linking experiments; coupled to Sepharose beads in the affinity purification, mature) APMAEGGGQNHHEVVKFMDVYQRSYCHPIETLVDIFQEYPDEIEYIFKPSCVPLMRCGGCCNDEGLECVPTEESNITMQIMRIKPHQGQHIGEMSFLQHNKCECRPKKDRARQENPCGPCSERRKHLFVQDPQTCKCSCKNTDSRCKARQLELNERTCRCDKPRR
–	–	–	–	no binding (tested: 10 ng/ml)	Human recombinant VEGF121 (ligand, UniProt P15692-9 27-147, looked up, radio-iodinated (^125I, IODO-BEADS) in the cross-linking experiments, mature) APMAEGGGQNHHEVVKFMDVYQRSYCHPIETLVDIFQEYPDEIEYIFKPSCVPLMRCGGCCNDEGLECVPTEESNITMQIMRIKPHQGQHIGEMSFLQHNKCECRPKKDRARQEKCDKPRR
